What was measured:
[1] = target: CALR del52 (human calreticulin mutant L367fs*46), full length, no tag stated (human); test: flow cytometry on living Ba/F3 cells with human TPOR and CALR mutant after adding the Fc fusion to the medium; concentration not given
[2] = target: the molecule itself; test: native gel of CALR species with or without DTT (self-association)
[3] = target: the molecule itself; test: native gel with or without DTT (self-association)
[4] = target: T1, TpoR D1D2 (sD1D2) with immature glycans, produced with CALR del52 in Drosophila S2 (Schneider) cells (human, UniProt P40238 26-283, limits assumed, immature glycans (Asn117)); test: complex co-produced in S2 cells, size-exclusion chromatography, HDx-MS
T1 construct: Purified as a complex with CALR del52 for HDx-MS; also called immature TpoR
T1 sequence: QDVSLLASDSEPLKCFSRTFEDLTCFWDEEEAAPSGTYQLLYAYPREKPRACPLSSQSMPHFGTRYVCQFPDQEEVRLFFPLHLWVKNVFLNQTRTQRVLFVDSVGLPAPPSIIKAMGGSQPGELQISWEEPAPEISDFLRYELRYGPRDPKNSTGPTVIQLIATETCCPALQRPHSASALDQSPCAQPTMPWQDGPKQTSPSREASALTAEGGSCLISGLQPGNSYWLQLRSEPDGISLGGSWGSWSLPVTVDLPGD
Excerpt: All peptides were visually validated based on retention time, drift time and isotopic m/z. Data was statistically analyzed using Deuteros 2.0 with peptide-level significance testing (Lau et al., 2021).
Subsequently, CALR del52-D1D2 produced as a complex in Schneider cells was purified. Briefly, the extracellular domain of the human TpoR and human CALR mutant del52 produced in Drosophila S2 cells (Thermo Fisher Scientific) were fractionated by using size-exclusion chromatography by loading on a Superdex 200 Increase 10/300 column (GE Healthcare). Elution was performed at 0.5 mL/min with buffer TNG (Tris-NaCl-glycerol) pH 7.5, and 0.5 mL fractions were collected and analyzed by sodium dodecyl sulfate-polyacrylamide gel electrophoresis and western blot. Fraction proteins were immunoprecipitated with anti-His5 antibody (Qiagen) and treated with Endoglycosidase-H (NEB) or N-glycosidase F (NEB). HDx-MS was used to detect all interaction sites between CALR del52 and TpoR D1D2 (sD1D2) produced in the same cells. […] Importantly, this region was not involved in binding of mature TpoR as shown above, confirming that it is specifically involved in interaction with immature glycans. […]

[5] = target: T2, recombinant complete extracellular domain of TpoR with mature glycans (human, UniProt P40238 26-490, mature glycans); test: HDx-MS of mature TpoR ECD alone or with CALR del52
T2 construct: Purified recombinant protein used in HDx-MS; also called TpoR ECD; D1D2D3D4
T2 sequence: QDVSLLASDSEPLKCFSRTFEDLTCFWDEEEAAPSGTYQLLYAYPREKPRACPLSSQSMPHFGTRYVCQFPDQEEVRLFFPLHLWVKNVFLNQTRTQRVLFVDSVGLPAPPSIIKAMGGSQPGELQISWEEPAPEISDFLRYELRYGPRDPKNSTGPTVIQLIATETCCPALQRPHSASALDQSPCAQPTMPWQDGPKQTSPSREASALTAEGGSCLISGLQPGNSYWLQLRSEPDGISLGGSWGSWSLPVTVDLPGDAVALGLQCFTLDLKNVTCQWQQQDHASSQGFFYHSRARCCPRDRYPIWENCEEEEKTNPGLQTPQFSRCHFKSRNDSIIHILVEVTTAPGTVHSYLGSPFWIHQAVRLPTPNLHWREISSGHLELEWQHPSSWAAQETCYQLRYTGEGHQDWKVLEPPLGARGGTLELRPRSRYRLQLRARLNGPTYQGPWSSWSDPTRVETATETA
Procedure: Hydrogen-Deuterium Exchange Mass Spectrometry (HDx-MS): Hydrogen-Deuterium Exchange Mass Spectrometry was performed with a Waters nanoAcquity UPLC with HDx technology coupled with Synapt G2-Si. All purified recombinant proteins were used at 20 μM concentration in equilibration buffer (5 mM K2HPO4, 5 mM KH2PO4 dissolved in H2O, pH 7). For interaction analysis between recombinant mature D1D2D3D4 and CALR del52, proteins were first mixed together at a 1:1 molarity for 30 minutes at room temperature followed by 3 hours at 4° C. Proteins were then kept at 0° C. Labelling was performed with a 20-fold dilution of samples in labelling buffer (5 mM K2HPO4, 5 mM KH2PO4 dissolved in D20, pD 7) for 6 different incubation times (0, 0.25, 1, 5, 20 and 60 minutes) at 20° C. After incubation, the reaction was quenched using a 1:1 dilution in the quench buffer (0.05 M K2HPO4, 0.05 M KH2PO4 with 30 mM TCEP, pH 2.3) prior to injection into a pepsin column (Enzymate BEH Pepsin 2.1×30 Column, Waters CAT. 186007233) with dynamic flowrate of 150-75 μL/min. […] The peptides identified were further analyzed with DynamX 3.0 (Waters) using a tolerance of 10 ppm, a maximum length of 35 a.a., a minimum products per amino acid of 0.2 and requiring that each peptide was identified in 3 out of 3 replicates. […] Data was statistically analyzed using Deuteros 2.0 with peptide-level significance testing (Lau et al., 2021). […]

Question: How did the reduction of the level of CALR mutant at the cell surface [1] turn out when “D1-Fc (TPOR D1 domain fused through its C-terminus to an Fc fragment) (from UniProt P40238 26-121) (Fc fusion)” was run?
Answer: > 50%

B1: CALR Δc-tail (other)
chain: EPAVYFKEQFLDGDGWTSRWIESKHKSDFGKFVLSSGKFYGDEEKDKGLQTSQDARFYALSASFEPFSNKGQTLVVQFTVKHEQNIDCGGGYVKLFPNSLDQTDMHGDSEYNIMFGPDICGPGTKKVHVIFNYKGKNVLINKDIRCKDDEFTHLYTLIVRPDNTYEVKIDNSQVESGSLEDDWDFLPPKKIKDPDASKPEDWDERAKIDDPTDSKPEDWDKPEHIPDPDAKKPEDWDEEMDGEWEPPVIQNPEYKGEWKPRQIDNPDYKGTWIHPEIDNPEYSPDPSIYAYDNFGVLGLDLWQVKSGTIFDNFLITNDEAYAEEFGNETWGVTKAAEKQMKDKQDEEQR
notes: the C-tail is absent
Question: Does B1 bind [2]?
Answer: no binding

B2: CALR del52 (human calreticulin mutant L367fs*46), full length, no tag stated (other)
chain: EPAVYFKEQFLDGDGWTSRWIESKHKSDFGKFVLSSGKFYGDEEKDKGLQTSQDARFYALSASFEPFSNKGQTLVVQFTVKHEQNIDCGGGYVKLFPNSLDQTDMHGDSEYNIMFGPDICGPGTKKVHVIFNYKGKNVLINKDIRCKDDEFTHLYTLIVRPDNTYEVKIDNSQVESGSLEDDWDFLPPKKIKDPDASKPEDWDERAKIDDPTDSKPEDWDKPEHIPDPDAKKPEDWDEEMDGEWEPPVIQNPEYKGEWKPRQIDNPDYKGTWIHPEIDNPEYSPDPSIYAYDNFGVLGLDLWQVKSGTIFDNFLITNDEAYAEEFGNETWGVTKAAEKQMKDKQDEEQRTRRMMRTKMRMRRMRRTRRKMRRKMSPARPRTSCREACLQGWTEA
notes: also called CALR mutant; mutant CALR
Question: Does B2 bind [3]?
Answer: binds

Question: Does B2 bind [4]?
Answer: binds

Question: Does B2 bind [5]?
Answer: binds

From patent publication US20250250320A1 (UNIVERSITE CATHOLIQUE DE LOUVAIN, published 2025)
